According to patent US20160333110A1 (CHIOME BIOSCIENCE, published 2016):

T1: recombinant protein of the hTROP-2 extracellular region (human, UniProt P09758 27-263)
T1 construct: produced with baculovirus, purified on Ni Sepharose; also called hTROP-2 EC; hTROP-2-EC-His; not shown: C-terminal myc-His tag from pcDNA4/myc-His A
T1 sequence: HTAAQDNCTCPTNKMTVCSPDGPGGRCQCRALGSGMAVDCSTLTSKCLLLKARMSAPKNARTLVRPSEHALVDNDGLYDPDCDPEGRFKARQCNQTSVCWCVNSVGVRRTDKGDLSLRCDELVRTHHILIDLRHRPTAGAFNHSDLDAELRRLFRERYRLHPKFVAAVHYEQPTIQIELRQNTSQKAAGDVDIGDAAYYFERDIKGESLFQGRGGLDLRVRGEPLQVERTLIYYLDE

T2: recombinant hTACSTD2-Fc-His protein (Creative BioMart) (human, UniProt P09758 27-274, limits assumed)
T2 construct: bought protein; also called hTROP-2 (low-density antigen-coated ELISA); not shown: Fc part of the bought fusion protein; not described; His tag
T2 sequence: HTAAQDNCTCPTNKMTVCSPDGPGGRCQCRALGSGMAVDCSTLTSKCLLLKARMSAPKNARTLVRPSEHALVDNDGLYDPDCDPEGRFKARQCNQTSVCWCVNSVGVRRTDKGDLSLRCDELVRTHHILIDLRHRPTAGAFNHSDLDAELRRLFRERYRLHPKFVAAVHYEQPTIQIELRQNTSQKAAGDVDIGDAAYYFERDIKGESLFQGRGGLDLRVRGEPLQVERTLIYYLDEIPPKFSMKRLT

T3: peptide No. 4 of Table 11 (SEQ ID NO: 212) (human)
T3 peptide: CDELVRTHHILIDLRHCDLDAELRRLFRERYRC


Assays:
[1] = target: T1, recombinant protein of the hTROP-2 …; assay: monovalent ELISA: antibody captured by anti-mouse IgG, hTROP-2 EC titrated in solution, detected with anti-His
Method: Thereafter, coating was carried out at 4° C. overnight. Thereafter, the reaction product was washed with a washing buffer (PBS containing 0.05% Tween 20), and a blocking buffer (PBS containing 2% skim milk and 0.05% Tween 20) was then added thereto (200 μL/well) to block it (at room temperature for 1 hour). The resultant was washed with a washing buffer. […] The mixture was left at rest at room temperature for 1 hour, and the reaction product was then washed with a washing buffer. The recombinant protein of the hTROP-2 extracellular region described in Example 3 (hTROP-2 EC) was diluted with an ELISA buffer to prepare samples with a concentration range from 5 μg/mL to a series of three-fold dilutions (10 samples). The thus obtained sample was added in each amount of 50 μL/well to the plate. The mixture was left at rest at room temperature for 1 hour, and the reaction product was then washed with a washing buffer. […] The obtained mixture was left at rest at room temperature for 1 hour, and it was then washed with a washing buffer. […] The obtained mixture was left at rest at room temperature for 1 hour, and it was then washed with a washing buffer. […] Using Microplate reader Model 550 (BioRad), an absorbance at 450 nm was measured with an absorbance at 655 nm used as a reference.

[2] = target: T2, recombinant hTACSTD2-Fc-His protein …; assay: low-density antigen-coated ELISA, plate coated with 0.1 µg/mL hTACSTD2-Fc-His, purified antibodies; K5-70 (parental antibody); low-density ELISA, 0.1 µg/mL hTROP-2 coat
[3] = target: T3, peptide No. 4 of Table 11 (SEQ ID NO: …); assay: PEPSCAN/CLIPS peptide ELISA, antibody 1 µg/mL
Method: 5034 types of the synthesized peptides were covalently bound to PEPSCAN cards (455 peptides/card), and the binding of the synthesized peptides to antibodies was then analyzed by the ELISA method. […] After washing, the resultant was allowed to react with a 1000-fold diluted peroxidase-secondary antibody complex at 25° C. for 1 hour. After washing, a substrate solution (a solution containing 2,2′-azino-di-3-ethylbenzthiazoline sulfonate (ABTS) and 2 μL of 3% hydrogen peroxide solution) was added to the reaction solution, followed by a chromogenic reaction for 1 hour. The binding activity of the antibodies was quantified by photographing with a CCD camera and then performing an image analysis.

| Binder | EC50 [1] [ng/mL] | EC50 [2] [ng/mL] | binding of 16-16 [3] |
| --- | --- | --- | --- |
| anti-hTROP-2 monoclonal antibody clone K5-70 (antibody, mouse IgG2a, V domains shown, mouse IgG2a, hybridoma FERM BP-11251; also called K5-70 antibody; mouse K5-70 antibody) VH: QVQLQQPGAELVRPGASVKLSCKASGYTFTIYWINWVKQRPGQGLEWIGNIYPSDSYTNYNQKFKDKATLTVDKSSSTAYMQLSSPTSEDSAVYYCTRTSMADYWGQGTTLTVSS VL: DILLTQSPAILSVSPGERVSFSCRASQSIGTSIHWYQQRTNGSPRLLIKYASESISGIPSRFSGSGSGTDFTLSINSVESEDIADYYCQQSNSWPFTFGSGTKLEIK | 7 | 11.4 | – |
| anti-hTROP-2 monoclonal antibody clone T6-16 (antibody, mouse IgG2a, V domains shown, mouse IgG2a, hybridoma FERM BP-11346; also called T6-16 antibody) VH: EVQLQQSGPELVKPGASVKISCKASGYTFTDYNMHWVKQSHGKNLEWIGYIYPYNGGTGYNQRFKSRATMTVDKSSSTAYMELRSLTSDDSAVYYCAREDYGSSPSYAMDYWGQGTSVIVSS VL: DVVMTQTPLSLPVSLGDQASISCRSSQSLVHGNGNTYLHWYLQKPGQSPKLLIYKVSNRFSGVPDRFSGSGSGTDFTLKISRVEAEDLGVYFCSQTTHVPTFGSGTKLEIK | – | – | 713 |
